The results in this text go back to US20260001927A1.

The test deals with IL-10 receptors IL-10RA and IL-10RB engineered into U2OS osteosarcoma cells (UniProt Q13651). In words: cell-based or functional assay.

For the substance “recombinant human IL-10 (rhIL-10) (from UniProt P22301 19-178) (ligand)”, the EC50, luminescence from ligand-induced IL-10RA/IL-10RB receptor dimerization in engineered U2OS cells was 0.0915 nM.
